Laboratory results taken from IntAct's records for PubMed 21460798.

B1: APC/C activator protein CDH1 (Saccharomyces cerevisiae), P53197 (parent)
chain: MSTNLNPFMNNTPSSSPLKGSESKRVSKRPISSSSSASLLSSPSRRSRPSTVYGDRYIPSRTDIDFNSIVSISSMASVPALNPSSTEDQVEYQKERQAHETYNTLLKNELFGEMLSKDTVGSESSIDRIKNTRPSTRGNVHAENTTRHGYELERVSTPPPEAAGLEEFSPHSTPVTPRRLFTSQQDEITRPSSNSVRGASLLTYQQRKGRRLSAASLLQSQFFDSMSPVRPDSKQLLLSPGKQFRQIAKVPYRVLDAPSLADDFYYSLIDWSSTDVLAVALGKSIFLTDNNTGDVVHLCDTENEYTSLSWIGAGSHLAVGQANGLVEIYDVMKRKCIRTLSGHIDRVACLSWNNHVLTSGSRDHRILHRDVRMPDPFFETIESHTQEVCGLKWNVADNKLASGGNDNVVHVYEGTSKSPILTFDEHKAAVKAMAWSPHKRGVLATGGGTADRRLKIWNVNTSIKMSDIDSGSQICNMVWSKNTNELVTSHGYSKYNLTLWDCNSMDPIAILKGHSFRVLHLTLSNDGTTVVSGAGDETLRYWKLFDKPKAKVQPNSLIFDAFNQIR
B2: APC/C-CDH1 modulator 1 (Saccharomyces cerevisiae), Q08981 (parent)
chain: MISPSKKRTILSSKNINQKPRAVVKGNELRSPSKRRSQIDTDYALRRSPIKTIQISKAAQFMLYEETAEERNIAVHRHNEIYNNNNSVSNENNPSQVKENLSPAKICPYERAFLREGGRIALKDLSVDEFKGYIQDPLTDETIPLTLPLGDKKISLPSFITPPRNSKISIFFTSKHQGQNPETKISRSTDDVSEKKVVRKLSFHVYEDE
partner: B1 chain
B3: APC/C activator protein CDH1 (Saccharomyces cerevisiae), P53197 (parent)
chain: B1 chain
partner: B2 chain
B4: Probable serine/threonine-protein kinase HSL1 (Saccharomyces cerevisiae), P34244 (parent)
chain: MTGHVSKTSHVPKGRPSSLAKKAAKRAMAKVNSNPKRASGHLERVVQSVNDATKRLSQPDSTVSVATKSSKRKSRDTVGPWKLGKTLGKGSSGRVRLAKNMETGQLAAIKIVPKKKAFVHCSNNGTVPNSYSSSMVTSNVSSPSIASREHSNHSQTNPYGIEREIVIMKLISHTNVMALFEVWENKSELYLVLEYVDGGELFDYLVSKGKLPEREAIHYFKQIVEGVSYCHSFNICHRDLKPENLLLDKKNRRIKIADFGMAALELPNKLLKTSCGSPHYASPEIVMGRPYHGGPSDVWSCGIVLFALLTGHLPFNDDNIKKLLLKVQSGKYQMPSNLSSEARDLISKILVIDPEKRITTQEILKHPLIKKYDDLPVNKVLRKMRKDNMARGKSNSDLHLLNNVSPSIVTLHSKGEIDESILRSLQILWHGVSRELITAKLLQKPMSEEKLFYSLLLQYKQRHSISLSSSSENKKSATESSVNEPRIEYASKTANNTGLRSENNDVKTLHSLEIHSEDTSTVNQNNAITGVNTEINAPVLAQKSQFSINTLSQPESDKAEAEAVTLPPAIPIFNASSSRIFRNSYTSISSRSRRSLRLSNSRLSLSASTSRETVHDNEMPLPQLPKSPSRYSLSRRAIHASPSTKSIHKSLSRKNIAATVAARRTLQNSASKRSLYSLQSISKRSLNLNDLLVFDDPLPSKKPASENVNKSEPHSLESDSDFEILCDQILFGNALDRILEEEEDNEKERDTQRQRQNDTKSSADTFTISGVSTNKENEGPEYPTKIEKNQFNMSYKPSENMSGLSSFPIFEKENTLSSSYLEEQKPKRAALSDITNSFNKMNKQEGMRIEKKIQREQLQKKNDRPSPLKPIQHQELRVNSLPNDQGKPSLSLDPRRNISQPVNSKVESLLQGLKFKKEPASHWTHERGSLFMSEHVEDEKPVKASDVSIESSYVPLTTVATSSRDPSVLAESSTIQKPMLSLPSSFLNTSMTFKNLSQILADDGDDKHLSVPQNQSRSVAMSHPLRKQSAKISLTPRSNLNANLSVKRNQGSPGSYLSNDLDGISDMTFAMEIPTNTFTAQAIQLMNNDTDNNKINTSPKASSFTKEKVIKSAAYISKEKEPDNSDTNYIPDYTIPNTYDEKAINIFEDAPSDEGSLNTSSSESDSRASVHRKAVSIDTMATTNVLTPATNVRVSLYWNNNSSGIPRETTEEILSKLRLSPENPSNTHMQKRFSSTRGSRDSNALGISQSLQSMFKDLEEDQDGHTSQADILESSMSYSKRRPSEESVNPKQRVTMLFDEEEEESKKVGGGKIKEEHTKLDNKISEESSQLVLPVVEKKENANNTENNYSKIPKPSTIKVTKDTAMESNTQTHTKKPILKSVQNVEVEEAPSSDKKNWFVKLFQNFSSHNNATKASKNHVTNISFDDAHMLTLNEFNKNSIDYQLKNLDHKFGRKVVEYDCKFVKGNFKFKIKITSTPNASTVITVKKRSKHSNTSSNKAFEKFNDDVERVIRNAGRS
partner: B1 chain

Variants of: B1
Conditions: with hsl1_yeast HSL1, P34244

Variant	effect of a mutation on the interaction
P258A	disrupting interaction
L255V	disrupting interaction
D536A	increasing interaction
G535A	disrupting interaction

Variants of: B2
Conditions: with cdh1_yeast CDH1, P53197

Variant	effect of a mutation on the interaction
K98A	disrupting interaction
R119A	disrupting interaction
N100A	disrupting interaction
E99A	disrupting interaction
E66A	disrupting interaction
E65D	disrupting interaction
L122A	disrupting interaction

Variants of: B2
Conditions: with cdh1_yeast CDH1, P53197
Remark: another data set of the same source

Variant	effect of a mutation on the interaction
R8A	disrupting interaction
L11D	disrupting interaction

Variants of: B2
Conditions: with cdh1_yeast CDH1, P53197
Remark: another data set of the same source

Variant	effect of a mutation on the interaction
E69A	disrupting interaction
T67A	disrupting interaction
E66D	disrupting interaction
E65A	disrupting interaction

Variants of: B2
Conditions: with cdh1_yeast CDH1, P53197
Remark: another data set of the same source

Variant	effect of a mutation on the interaction
E69A	decreasing interaction
T67A	decreasing interaction
E66A	decreasing interaction
E65A	decreasing interaction

Variants of: B3
Conditions: with acm1_yeast ACM1, Q08981

Variant	effect of a mutation on the interaction
L255V	disrupting interaction
D536A	increasing interaction
P258A	disrupting interaction
G535A	disrupting interaction

Variants of: B4
Conditions: with cdh1_yeast CDH1, P53197

Variant	effect of a mutation on the interaction
E776A	disrupting interaction
N777A	disrupting interaction
E781A	disrupting interaction
K775A	disrupting interaction
